From publication doi:10.1101/2023.12.22.573140

Tests used:
Test in all cases: ITC
[1] = molecular target: TGF-β type II receptor (TβRII) (UniProt P37173)
[2] = molecular target: TGF-β mimic 6 (TGM6), full-length (Heligmosomoides polygyrus)
[3] = molecular target: TGM6 domain 3 (TGM6-D3) (Heligmosomoides polygyrus)

## TGM6-D3 R82S (domain or fragment)
[1]
  fold loss of binding affinity against wild type: 7.4 fold

## TGM6-D3 R82A (domain or fragment)
[1]
  fold decrease in binding affinity against wild type: 11 to 12 fold

## TGM1-D3 S242R (domain or fragment)
[1]
  fold gain of binding affinity against wild type: 4 fold

## TGM6-D3 Y80F (domain or fragment)
[1]
  fold decrease in binding affinity against wild type: 3.5 fold

## TGM6-D3 Y93A (domain or fragment)
[1]
  fold decrease in binding affinity against wild type: 108 fold

## TGM6-D3 I78A (domain or fragment)
[1]
  fold decrease in binding affinity against wild type: 15.4 fold

## TGM6-D3 R38A (domain or fragment)
[1]
  fold decrease in binding affinity against wild type: 22 fold

## TGF-β type II receptor (TβRII) (from UniProt P37173 46-155)
[2]
  Kd: 220 nM
[3]
  Kd: 440 nM

## TGM6-D3 R95A (domain or fragment)
[1]
  fold decrease in binding affinity against wild type: 11.6 fold

## TGM6-D3 Y80A (domain or fragment)
[1]
  fold decrease in binding affinity against wild type: 134 fold
